Reference: publication PMC7699296, “Dual-Channel Stopped-Flow Apparatus for Simultaneous Fluorescence, Anisotropy, and FRET Kinetic Data Acquisition for Binary and Ternary Biological Complexes” (Biosensors, 2020)

Legend:
Details in all cases: both partners purified
[1] = molecular target: T1, full-length Tata Binding Protein from Saccharomyces cerevisiae (Saccharomyces cerevisiae, UniProt P13393 1-240); test: stopped-flow fluorescence anisotropy kinetics (dual-channel, rF(t)); derived over the range 15 °C to 25 °C from the kon values: van't Hoff plot, and KD estimated with a dissociation rate constant cited from other work
T1 construct: also called yTBP; TBP; source: Escherichia coli, purified
T1 sequence (looked up): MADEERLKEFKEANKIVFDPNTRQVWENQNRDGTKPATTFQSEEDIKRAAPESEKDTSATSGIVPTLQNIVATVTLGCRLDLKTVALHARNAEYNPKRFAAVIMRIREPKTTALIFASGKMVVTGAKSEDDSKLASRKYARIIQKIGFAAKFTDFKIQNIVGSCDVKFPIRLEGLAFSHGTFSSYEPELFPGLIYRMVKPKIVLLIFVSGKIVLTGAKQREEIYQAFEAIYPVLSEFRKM

[2] = molecular target: T1, full-length Tata Binding Protein from …; test: stopped-flow fluorescence anisotropy kinetics (dual-channel, rF(t)); 17 °C; preformed yTBP (220 nM)-AdMLP31ds*Flint (20 nM) in syringe 1, 850 nM TFIIA in syringe 2 (concentrations after mixing); 25 mM Tris, 100 mM KCl, 5 mM MgCl2, 1 mM CaCl2, 2 mM DTT; biphasic fit, kon from the fast eigenvalue
[3] = molecular target: T1, full-length Tata Binding Protein from …; test: stopped-flow fluorescence anisotropy kinetics (dual-channel, rF(t)); 25 °C; preformed yTBP (220 nM)-AdMLP31ds*Flint (20 nM) in syringe 1, 850 nM TFIIA in syringe 2 (concentrations after mixing); 25 mM Tris, 100 mM KCl, 5 mM MgCl2, 1 mM CaCl2, 2 mM DTT; biphasic fit, kon from the fast eigenvalue
[4] = molecular target: T1, full-length Tata Binding Protein from …; test: stopped-flow fluorescence anisotropy kinetics (dual-channel, rF(t)); 15 °C; preformed yTBP (220 nM)-AdMLP31ds*Flint (20 nM) in syringe 1, 850 nM TFIIA in syringe 2 (concentrations after mixing); 25 mM Tris, 100 mM KCl, 5 mM MgCl2, 1 mM CaCl2, 2 mM DTT; biphasic fit, kon from the fast eigenvalue

- Kd [1]: 2.1 to 6.6 nM
- dH [1]: 19.6 ± 1.6 kcal/mol
- kon [2]: 1.84e+06 M⁻¹ s⁻¹
- kon [3]: 4.68e+06 M⁻¹ s⁻¹
- kon [4]: 1.45e+06 M⁻¹ s⁻¹
B1: yeast Transcription Factor II A (complex)
chain 1: MSNAEASRVYEIIVESVVNEVREDFENAGIDEQTLQDLKNIWQKKLTETKVTTFSWDNQFNEGNINGVQNDLNFNLATPGVNSSEFNIKEENTGNEGLILPNINSNNNIPHSGETNINTNTVEATNNSGATLNTNTSGNTNADVTSQPKIEVKPEIELTINNANITTVENIDDESEKKDDEEKEEDVEKTRKEKEQIEQVKLQAKKEKRSALLDTDEVGSELDDSDDDYLISEGEEDGPDENLMLCLYDKVTRTKARWKCSLKDGVVTINRNDYTFQKAQVEAEWV
chain 2: MAVPGYYELYRRSTIGNSLVDALDTLISDGRIEASLAMRVLETFDKVVAETLKDNTQSKLTVKGNLDTYGFCDDVWTFIVKNCQVTVEDSHRDASQNGSGDSQSVISVDKLRIVACNSKKSE
modifications: Construct and limits are not given; the full-length TOA1/TOA2 heterodimer is assumed. Species is inferred from the label yTFIIA and the S. cerevisiae TBP used with it.
